Measurements from publication PMC9609998, “Bioimaging Nucleic-Acid Aptamers with Different Specificities in Human Glioblastoma Tissues Highlights Tumoral Heterogeneity”.

Target: integrin α5β1 (in human FFPE glioblastoma sections) (human, UniProt P08648;P05556 42-1049;21-798)
Assay: aptahistofluorescence; FFPE GBM, 1 or 2 µM aptamer; frozen sections too low to detect; Flow cytometry: 300,000 cells detached with 0.2 M EDTA, 30 min with Cy5-aptamer; tissue: selection buffer, 2% BSA +/- 100 µg/mL yeast tRNA block, 1 h on ice; aptamers denatured at 95 °C 3 min then ice 5 min; buffer composition, salt and pH not given in material
Details: protein: native; copies: 1;1; label: 3'-Cy5

Sequence of integrin α5β1 (in human FFPE glioblastoma sections) (P08648 42-1049, chain 1 of 2): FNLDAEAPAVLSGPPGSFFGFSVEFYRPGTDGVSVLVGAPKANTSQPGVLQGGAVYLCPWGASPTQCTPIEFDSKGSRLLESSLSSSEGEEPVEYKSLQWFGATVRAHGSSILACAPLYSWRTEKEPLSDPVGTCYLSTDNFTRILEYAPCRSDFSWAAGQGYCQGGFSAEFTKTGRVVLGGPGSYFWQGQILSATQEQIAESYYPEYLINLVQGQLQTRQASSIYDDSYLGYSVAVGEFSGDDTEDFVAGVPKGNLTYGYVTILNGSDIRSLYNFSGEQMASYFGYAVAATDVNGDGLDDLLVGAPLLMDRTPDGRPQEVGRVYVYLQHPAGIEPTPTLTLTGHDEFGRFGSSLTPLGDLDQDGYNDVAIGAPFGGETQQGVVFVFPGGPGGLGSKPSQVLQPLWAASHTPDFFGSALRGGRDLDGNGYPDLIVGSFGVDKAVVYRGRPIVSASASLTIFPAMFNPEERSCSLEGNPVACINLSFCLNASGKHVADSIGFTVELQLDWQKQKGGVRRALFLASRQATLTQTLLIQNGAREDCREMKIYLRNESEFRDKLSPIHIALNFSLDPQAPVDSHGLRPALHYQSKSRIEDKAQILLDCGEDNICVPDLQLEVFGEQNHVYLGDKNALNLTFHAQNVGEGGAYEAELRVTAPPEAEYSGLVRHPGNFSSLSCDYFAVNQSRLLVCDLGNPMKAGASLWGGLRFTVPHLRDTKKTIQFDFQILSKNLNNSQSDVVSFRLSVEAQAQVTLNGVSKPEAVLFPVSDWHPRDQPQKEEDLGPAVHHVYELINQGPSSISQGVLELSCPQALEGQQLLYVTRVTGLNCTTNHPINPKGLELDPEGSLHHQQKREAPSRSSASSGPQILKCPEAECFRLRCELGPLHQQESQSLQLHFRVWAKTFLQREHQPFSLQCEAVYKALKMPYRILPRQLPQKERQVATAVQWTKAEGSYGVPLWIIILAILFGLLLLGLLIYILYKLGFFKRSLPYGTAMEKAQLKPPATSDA
Sequence of integrin α5β1 (in human FFPE glioblastoma sections) (P05556 21-798, chain 2 of 2): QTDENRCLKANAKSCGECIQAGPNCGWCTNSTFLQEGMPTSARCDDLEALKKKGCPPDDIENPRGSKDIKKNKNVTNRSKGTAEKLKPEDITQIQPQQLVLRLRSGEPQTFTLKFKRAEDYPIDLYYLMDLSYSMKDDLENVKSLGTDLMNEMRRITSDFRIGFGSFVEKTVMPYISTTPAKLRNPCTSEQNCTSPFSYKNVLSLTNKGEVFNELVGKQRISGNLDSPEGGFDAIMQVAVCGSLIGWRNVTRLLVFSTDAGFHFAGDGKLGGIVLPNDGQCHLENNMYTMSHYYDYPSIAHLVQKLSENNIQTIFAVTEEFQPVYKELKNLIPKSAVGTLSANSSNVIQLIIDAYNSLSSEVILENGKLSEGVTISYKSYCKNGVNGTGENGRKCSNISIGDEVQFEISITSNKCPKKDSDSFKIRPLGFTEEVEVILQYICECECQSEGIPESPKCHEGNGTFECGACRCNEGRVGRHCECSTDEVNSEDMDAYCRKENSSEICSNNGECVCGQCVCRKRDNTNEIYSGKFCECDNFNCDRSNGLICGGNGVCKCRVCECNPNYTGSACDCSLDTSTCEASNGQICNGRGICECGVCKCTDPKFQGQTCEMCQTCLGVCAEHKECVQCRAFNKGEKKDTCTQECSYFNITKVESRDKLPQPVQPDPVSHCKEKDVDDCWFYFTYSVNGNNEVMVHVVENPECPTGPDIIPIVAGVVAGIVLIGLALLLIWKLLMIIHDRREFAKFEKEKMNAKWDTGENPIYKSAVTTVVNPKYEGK

B1: H02-Cy5 (XNA)
RNA: GGUUACCAGCCUUCACUGCGGACGGACAGAGAGUGCAACCUGCCGUGCCGCACCACGGUCGGUCACAC
modifications: 2'-fluoro pyrimidines (2'F-RNA)
  binding result: binds
